Three molecules from EP4818204A1 (Nanjing Leads Biolabs Co., Ltd., dated 2026) can be followed below.

The target in assay [1] is T1, human GDF1 protein (human, UniProt P27539 254-372, limits assumed).
T1 construct: Bought
T1 sequence (looked up): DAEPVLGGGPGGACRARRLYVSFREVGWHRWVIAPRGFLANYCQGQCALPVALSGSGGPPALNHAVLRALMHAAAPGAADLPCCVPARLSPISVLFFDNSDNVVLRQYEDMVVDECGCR
The assay can be described thus: ELISA, coated protein. Background: An ELISA detects its analyte on a solid surface through an enzyme-linked reagent.

In assay [2] the target is T2, human GDF2 protein (human, UniProt Q9UK05 320-429).
T2 construct: Bought
T2 sequence (looked up): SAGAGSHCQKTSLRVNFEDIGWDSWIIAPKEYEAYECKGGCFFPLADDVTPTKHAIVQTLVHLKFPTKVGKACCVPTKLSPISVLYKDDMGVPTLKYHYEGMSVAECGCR
The assay can be described thus: ELISA, coated protein.

In assay [3] the target is T3, human GDF3 protein (human, UniProt Q9NR23 251-364, limits assumed).
T3 construct: Bought
T3 sequence (looked up): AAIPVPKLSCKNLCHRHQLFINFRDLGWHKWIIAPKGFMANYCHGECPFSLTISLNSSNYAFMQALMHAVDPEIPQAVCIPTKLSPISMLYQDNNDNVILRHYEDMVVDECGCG
The assay can be described thus: ELISA, coated protein.

For assay [4], the target named is T4, human BMP4 protein (human, UniProt P12644 293-408).
T4 construct: Bought
T4 sequence (looked up): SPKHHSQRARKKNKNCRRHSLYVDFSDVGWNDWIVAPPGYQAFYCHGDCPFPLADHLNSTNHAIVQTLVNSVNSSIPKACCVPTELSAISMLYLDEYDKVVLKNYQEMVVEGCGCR
Put plainly: ELISA, coated protein.

Assay [5] concerns the target T5, human GDF11 protein (human, UniProt O95390 299-407).
T5 construct: Bought
T5 sequence (looked up): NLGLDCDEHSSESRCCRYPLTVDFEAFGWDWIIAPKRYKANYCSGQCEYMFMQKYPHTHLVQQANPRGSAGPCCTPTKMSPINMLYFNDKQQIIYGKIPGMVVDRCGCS
Put plainly: ELISA, coated protein.

Assay [6] deals with T6, human TGFβ1 protein (human, UniProt P01137 279-390).
T6 construct: Bought
T6 sequence (P01137 279-390 limits assumed): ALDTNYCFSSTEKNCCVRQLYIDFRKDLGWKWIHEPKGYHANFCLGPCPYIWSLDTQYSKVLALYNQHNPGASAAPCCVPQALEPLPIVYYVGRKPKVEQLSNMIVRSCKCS
Put plainly: ELISA, coated protein.

Assay [7] deals with T7, human GFRα1 protein (human, UniProt P56159 25-429, limits assumed).
T7 construct: Bought
T7 sequence (looked up): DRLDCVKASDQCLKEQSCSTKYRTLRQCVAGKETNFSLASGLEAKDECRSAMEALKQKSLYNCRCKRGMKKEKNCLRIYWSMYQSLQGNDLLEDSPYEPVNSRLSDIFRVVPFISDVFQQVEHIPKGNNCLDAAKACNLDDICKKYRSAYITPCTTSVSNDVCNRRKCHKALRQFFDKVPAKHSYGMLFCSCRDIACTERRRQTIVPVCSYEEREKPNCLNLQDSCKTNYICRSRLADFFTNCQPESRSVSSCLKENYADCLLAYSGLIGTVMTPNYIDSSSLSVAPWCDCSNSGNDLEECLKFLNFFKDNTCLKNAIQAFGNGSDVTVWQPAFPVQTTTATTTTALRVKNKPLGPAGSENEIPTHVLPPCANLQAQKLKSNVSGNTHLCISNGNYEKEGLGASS
Put plainly: ELISA, coated protein.

The target of assay [8] is T8, human BMP2 protein (human, UniProt P12643 283-396).
T8 construct: Bought
T8 sequence (P12643 283-396 limits assumed): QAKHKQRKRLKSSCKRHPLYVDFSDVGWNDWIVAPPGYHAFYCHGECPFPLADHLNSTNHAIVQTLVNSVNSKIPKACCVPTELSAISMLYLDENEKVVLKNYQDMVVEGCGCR
Put plainly: ELISA, coated protein.

Assay [9] addresses T9, human Activin A protein (human, UniProt P08476 311-426).
T9 construct: Bought; Activin A is by nature a dimer of inhibin beta A chains
T9 sequence (looked up): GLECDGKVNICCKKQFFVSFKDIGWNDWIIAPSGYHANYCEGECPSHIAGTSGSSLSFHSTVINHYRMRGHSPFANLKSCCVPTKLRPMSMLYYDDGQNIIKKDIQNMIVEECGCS
Put plainly: ELISA, coated protein.

Assay [10] deals with T10, human Activin B protein (human, UniProt P09529 293-407).
T10 construct: Bought; Activin B is by nature a dimer of inhibin beta B chains
T10 sequence (looked up): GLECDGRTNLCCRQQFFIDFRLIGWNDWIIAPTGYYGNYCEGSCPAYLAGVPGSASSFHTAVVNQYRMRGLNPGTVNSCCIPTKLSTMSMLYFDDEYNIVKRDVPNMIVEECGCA
Put plainly: ELISA, coated protein.

Assay [11] deals with T1, human GDF1 protein. The assay can be described thus: ELISA, coated protein, antibody at 4 µg/mL.
For assay [12], the target named is T2, human GDF2 protein. Put plainly: ELISA, coated protein, antibody at 4 µg/mL.
The target in assay [13] is T3, human GDF3 protein. The assay can be described thus: ELISA, coated protein, antibody at 4 µg/mL.
Assay [14] deals with T5, human GDF11 protein. The assay can be described thus: ELISA, coated protein, antibody at 4 µg/mL.
Assay [15] deals with T8, human BMP2 protein. The assay can be described thus: ELISA, coated protein, antibody at 4 µg/mL.
Assay [16] has as its target T11, Human GDF15 protein (human, UniProt Q99988 197-308).
T11 construct: Natural GDF15 is said to be a disulfide-linked homodimer; also called Human-GDF15-his
T11 sequence: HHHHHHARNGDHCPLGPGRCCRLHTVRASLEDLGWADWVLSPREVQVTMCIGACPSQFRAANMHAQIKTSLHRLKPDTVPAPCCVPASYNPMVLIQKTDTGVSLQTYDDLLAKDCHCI
Put plainly: BLI (Fortebio Octet), antibody on AHC sensor, GDF15 as analyte, 1:1 model.

Assay [17] addresses T12, Cynomolgus monkey GDF15 protein (cynomolgus monkey, UniProt G7PWZ3 193-308).
T12 construct: Bought protein (Kactus Biosystems GDF-CE115); also called Cynomolgus GDF15 protein; Cynomolgus-GDF15
T12 sequence: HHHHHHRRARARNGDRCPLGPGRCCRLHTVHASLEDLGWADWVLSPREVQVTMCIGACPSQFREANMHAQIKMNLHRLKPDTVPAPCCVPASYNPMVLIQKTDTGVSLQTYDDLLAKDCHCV
Described as above.

In assay [18] the target is T13, Mouse GDF15 protein (mouse, UniProt Q9Z0J7 189-303).
T13 sequence: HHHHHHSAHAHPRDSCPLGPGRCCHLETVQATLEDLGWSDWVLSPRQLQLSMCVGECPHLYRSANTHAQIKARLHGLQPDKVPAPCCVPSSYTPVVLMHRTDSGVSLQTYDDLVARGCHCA
The description is as above.

Where only a bound is given, the exact number is not on record here.

B1: Hu19C4C7 (antibody, human IgG1, kappa)
heavy: QVQLVQSGAEVKKPGSSVKVSCKASGYSFTGYIMNWVRQAPGQSLEWMGDIDPYYGGPNYNQKFQGRVTITVDKSTSTAYMELSSLRSEDTAVYYCSRRDYNYGSFAYWGQGTLVTVSSASTKGPSVFPLAPSSKSTSGGTAALGCLVKDYFPEPVTVSWNSGALTSGVHTFPAVLQSSGLYSLSSVVTVPSSSLGTQTYICNVNHKPSNTKVDKKVEPKSCDKTHTCPPCPAPEAAGAPSVFLFPPKPKDTLMISRTPEVTCVVVDVSHEDPEVKFNWYVDGVEVHNAKTKPREEQYNSTYRVVSVLTVLHQDWLNGKEYKCKVSNKALPAPIEKTISKAKGQPREPQVYTLPPSREEMTKNQVSLTCLVKGFYPSDIAVEWESNGQPENNYKTTPPVLDSDGSFFLYSKLTVDKSRWQQGNVFSCSVMHEALHNHYTQKSLSLSPGK
light: QIVLTQSPATLSLSPGERATLSCRASSSVNYMHWYQQKPGQAPRPLIYATSNLATGIPARFSGSGSGTDYTLTISSLEPEDFAVYYCQQWSDNPPTFGQGTKLEIKRTVAAPSVFIFPPSDEQLKSGTASVVCLLNNFYPREAKVQWKVDNALQSGNSQESVTEQDSKDSTYSLSSTLTLSKADYEKHKVYACEVTHQGLSSPVTKSFNRGEC
notes: Humanized form of murine 19C4C7; human IgG1 constant region with L234A, L235A, G237A and kappa light chain constant region; also called hu19C4C7-IgG1-mut(L234A,L235A,G237A)
Usually Kd stands for a measure of binding affinity in units of concentration. The term koff denotes a measure of how fast the partners let go of each other. As a reminder, the kon is a measure of how fast the partners come together. Turning to B1, the binding result in assay [1], in assay [2], in [3], in assay [4], in [5] and in assay [6] was “no binding (tested: 4 µg/mL)” throughout. Besides, the binding result in [7], in assay [8], in assay [9] and in [10] was “no binding (tested: 4 µg/mL)” in each case. The OD value in [11] is 0.0433 OD 450 nm-620 nm; in assay [12] it was 0.0678 OD 450 nm-620 nm; in assay [13], 0.0418 OD 450 nm-620 nm; in assay [14] it was 0.0368 OD 450 nm-620 nm; in [15] it was 0.0457 OD 450 nm-620 nm. The values for the Kd in assay [16], in assay [17] and in assay [18] were 0.0264 nM, 0.312 nM and 14.9 nM, respectively. Moreover, the koff in [16] worked out at 2.35e-05 s⁻¹; in [17], 8.24e-05 s⁻¹; in assay [18] it was 0.00241 s⁻¹. Further, the kon turned out to be 887000 M⁻¹ s⁻¹ in [16], 265000 M⁻¹ s⁻¹ in assay [17] and 162000 M⁻¹ s⁻¹ in assay [18].

B2: Hu21H6D2 (antibody, human IgG1, kappa, V domains shown)
VH: QVQLVQSGAEVKKPGASVKVSCKASGYTFTGYIMNWVRQAPGQRLEWMGDIDPYYGDAKYNQKFKGKVTITVDKSASTAYMELSSLRSEDTAVYYCARRDYDHGSFAYWGQGTLVTVSS
VL: EIVLTQSPDFQSVTPKEKVTITCSASSSVNYMHWYQQKPDQSPKRLIYDTSKLASGVPSRFSGSGSGTDYTLTINSLEAEDAATYYCQQWSSNPPTFGQGTKLEIKR
notes: Humanized form of murine 21H6D2; human IgG1 constant region with L234A, L235A, G237A and kappa light chain constant region; also called hu21H6D2-IgG1-mut(L234A,L235A,G237A)
As for B2, the binding result in assay [1], in assay [2], in assay [3], in [4], in assay [5] and in assay [6] was “no binding (tested: 4 µg/mL)” throughout. Further, the binding result in [7], in [8], in assay [9] and in assay [10] was “no binding (tested: 4 µg/mL)” throughout. The OD value in assay [11] was 0.0412 OD 450 nm-620 nm; in assay [12], 0.0648 OD 450 nm-620 nm; in [13], 0.041 OD 450 nm-620 nm; in [14], 0.0426 OD 450 nm-620 nm; in [15] it was 0.0683 OD 450 nm-620 nm. Also, the Kd in assay [16] was 0.0515 nM; in assay [17] it was 0.231 nM; in assay [18], 10.6 nM. The koff was found to be 4.87e-05 s⁻¹ in assay [16], 6.13e-05 s⁻¹ in assay [17] and 0.00116 s⁻¹ in assay [18]. For the same molecule, the kon in assay [16] is 946000 M⁻¹ s⁻¹; in assay [17] it was 265000 M⁻¹ s⁻¹; in assay [18], 110000 M⁻¹ s⁻¹.

B3: HuVHH43-3 (Fc fusion)
heavy: QLQLVESGGGLVQPGGSLRLSCAASGHTYGMGWFRQAPGKAREIVSAISRSGSSTYYADSVKGRFTISRDNSKNTLYLQMNSLRAEDTAVYICGASTSALVPTTTGMYAYWGQGTRVTVSSEPKSSDKTHTCPPCPAPEAAGAPSVFLFPPKPKDTLMISRTPEVTCVVVDVSHEDPEVKFNWYVDGVEVHNAKTKPREEQYNSTYRVVSVLTVLHQDWLNGKEYKCKVSNKALPAPIEKTISKAKGQPREPQVYTLPPSREEMTKNQVSLTCLVKGFYPSDIAVEWESNGQPENNYKTTPPVLDSDGSFFLYSKLTVDKSRWQQGNVFSCSVMHEALHNHYTQKSLSLSPGK
notes: also called huVHH43-IgG1-mut(L234A,L235A,G237A); VHH humanized anti-GDF15 antibody
For B3, the binding result in [1], in [2], in assay [3], in [4], in [5] and in assay [6] was “no binding (tested: 4 µg/mL)” throughout. In addition, the binding result in [7], in [8], in [9] and in assay [10] was “no binding (tested: 4 µg/mL)” throughout. Besides, the OD value in [11] came to 0.0504 OD 450 nm-620 nm; in assay [12] it was 0.0644 OD 450 nm-620 nm; in assay [13] it was 0.0406 OD 450 nm-620 nm; in [14], 0.04 OD 450 nm-620 nm; in assay [15], 0.0538 OD 450 nm-620 nm. Besides, the Kd in assay [16] was below 0.001 nM; in assay [17], below 0.001 nM; in assay [18], 1.25 nM. In addition, the koff was below 1e-07 s⁻¹ in assay [16], below 1e-07 s⁻¹ in [17] and 6.58e-05 s⁻¹ in [18]. Besides, the kon was 573000 M⁻¹ s⁻¹ in assay [16], 205000 M⁻¹ s⁻¹ in assay [17] and 52500 M⁻¹ s⁻¹ in [18].
